Data set [1] deals with T1, FrzCD (Myxococcus xanthus, UniProt P43500 1-417).
T1 sequence: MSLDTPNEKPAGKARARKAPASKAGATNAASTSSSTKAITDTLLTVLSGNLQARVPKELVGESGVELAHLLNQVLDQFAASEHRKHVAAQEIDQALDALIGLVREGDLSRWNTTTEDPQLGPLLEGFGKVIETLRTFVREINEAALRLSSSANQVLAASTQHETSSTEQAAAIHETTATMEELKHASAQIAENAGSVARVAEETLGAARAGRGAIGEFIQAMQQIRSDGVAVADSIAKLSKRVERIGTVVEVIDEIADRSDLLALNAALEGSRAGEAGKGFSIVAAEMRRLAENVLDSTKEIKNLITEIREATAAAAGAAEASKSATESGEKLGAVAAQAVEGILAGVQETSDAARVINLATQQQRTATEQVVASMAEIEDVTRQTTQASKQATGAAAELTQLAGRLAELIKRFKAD
Put plainly: EMSA.

In data set [2] the target is T2, FrzCDΔMA (DB-H1-H2) (Myxococcus xanthus, UniProt P43500 1-137, del138-417).
T2 sequence: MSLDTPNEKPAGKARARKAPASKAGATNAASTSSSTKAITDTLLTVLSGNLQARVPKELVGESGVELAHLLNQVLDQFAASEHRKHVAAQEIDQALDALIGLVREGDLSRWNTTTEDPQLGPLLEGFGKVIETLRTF
The data set can be described thus: EMSA.

The data set “SEC-MALS” concerns the molecule itself. The data set can be described thus: SEC-MALS.
The target in data set [3] is T3, FrzCDΔH1ΔH2 (Myxococcus xanthus, UniProt P43500 1-417, del31-137).
T3 sequence: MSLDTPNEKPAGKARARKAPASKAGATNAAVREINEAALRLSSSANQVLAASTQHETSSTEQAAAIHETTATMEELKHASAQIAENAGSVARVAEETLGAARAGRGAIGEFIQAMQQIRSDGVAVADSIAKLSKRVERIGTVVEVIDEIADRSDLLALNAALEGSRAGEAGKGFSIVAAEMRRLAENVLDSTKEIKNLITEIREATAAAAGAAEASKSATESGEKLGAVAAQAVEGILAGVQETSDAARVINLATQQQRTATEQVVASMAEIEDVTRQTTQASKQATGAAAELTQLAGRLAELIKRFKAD
The data set can be described thus: BLI.

Data set [4] concerns the target T4, FrzCDΔH2 (DB-H1-MA) (Myxococcus xanthus, UniProt P43500 1-417, del84-137).
T4 sequence: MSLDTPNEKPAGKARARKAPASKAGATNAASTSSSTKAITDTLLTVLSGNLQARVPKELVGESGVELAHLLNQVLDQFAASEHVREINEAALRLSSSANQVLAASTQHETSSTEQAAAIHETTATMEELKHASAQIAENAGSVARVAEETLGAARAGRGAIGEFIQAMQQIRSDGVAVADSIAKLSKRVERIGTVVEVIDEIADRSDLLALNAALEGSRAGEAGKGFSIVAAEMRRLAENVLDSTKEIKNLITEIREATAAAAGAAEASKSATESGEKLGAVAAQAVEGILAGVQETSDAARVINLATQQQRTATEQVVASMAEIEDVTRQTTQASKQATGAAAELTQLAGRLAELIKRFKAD
The data set can be described thus: BLI.

The target in data set [5] is T1, FrzCD. The data set can be described thus: BLI.
Data set [6] addresses T5, FrzCDΔH1 (Myxococcus xanthus, UniProt P43500 1-417, del31-83).
T5 sequence: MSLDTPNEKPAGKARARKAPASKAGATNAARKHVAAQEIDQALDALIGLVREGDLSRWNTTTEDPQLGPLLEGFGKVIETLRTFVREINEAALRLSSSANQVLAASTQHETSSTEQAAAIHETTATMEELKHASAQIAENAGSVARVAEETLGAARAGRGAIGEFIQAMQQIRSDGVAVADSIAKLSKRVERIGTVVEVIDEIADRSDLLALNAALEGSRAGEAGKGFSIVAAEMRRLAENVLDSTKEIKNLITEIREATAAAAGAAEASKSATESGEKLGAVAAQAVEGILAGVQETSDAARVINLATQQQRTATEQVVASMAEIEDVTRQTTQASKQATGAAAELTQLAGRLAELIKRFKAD
The data set can be described thus: BLI.

Data set [7] concerns the target T2, FrzCDΔMA (DB-H1-H2). The data set can be described thus: EMSA. The source holds these as a separate data set.
Data set [8] concerns the target T3, FrzCDΔH1ΔH2. The data set can be described thus: EMSA.
Data set [9] addresses T4, FrzCDΔH2 (DB-H1-MA). Put plainly: EMSA.
The target of data set [10] is T5, FrzCDΔH1. Put plainly: EMSA.
For data set [11], the target named is T1, FrzCD. The data set can be described thus: SEC-MALS.
Data set [12] has as its target T2, FrzCDΔMA (DB-H1-H2). The data set can be described thus: SEC-MALS.

These results are taken from paper doi:10.1101/2024.09.02.610768 (bioRxiv, 2024).

Regarding AAAAAAAA (ssDNA) [8-base poly-A ssDNA], in the data set with FrzCD [1], the binding result is reported as “binds”.

B1: 8 bp DNA (dsDNA)
DNA 1: ACTGCAGT
DNA 2: ACTGCAGT
With B1, the binding result with FrzCDΔMA (DB-H1-H2) [2] and with FrzCD [1] was “binds” in each case.

B2: FrzCD^ΔMA (domain or fragment, Myxococcus xanthus, UniProt P43500 1-137, looked up)
chain: T2 sequence
For the molecule B2, the “stoichiometry N” value in the data set “SEC-MALS” amounted to 2.

B3: 178 bp DNA (dsDNA)
DNA 1: GGATCGCATCTGCCTACATCCCCAGCTCCCGGTCGGTCCGCTCGGAACCTAGCCCGGGTCAAAGACCCGGGGTCTATGTTGACCCATTTGGTGGGGATGGGTCTAATTGGACCTGGCGTTTTTTCGCGCCATGGAAATGTCAAGGCCCGTGATTCCAGACTGTTGGGCAGGGAGTT
DNA 2: AACTCCCTGCCCAACAGTCTGGAATCACGGGCCTTGACATTTCCATGGCGCGAAAAAACGCCAGGTCCAATTAGACCCATCCCCACCAAATGGGTCAACATAGACCCCGGGTCTTTGACCCGGGCTAGGTTCCGAGCGGACCGACCGGGAGCTGGGGATGTAGGCAGATGCGATCC
As to B3, the Kd with FrzCDΔH1ΔH2 [3] was 203 nM; with FrzCDΔH2 (DB-H1-MA) [4], 2640 nM; with FrzCD [5] it was 1070 nM; in the data set with FrzCDΔH1 [6], 2270 nM.

B4: 12 bp DNA (dsDNA)
DNA 1: CTCACTATAGGG
DNA 2: CCCTATAGTGAG
As to B4, the binding result with FrzCDΔMA (DB-H1-H2) [7] is on record as “binds”.

B5: FrzCD^ΔH2 (receptor, Myxococcus xanthus, UniProt P43500 1-417, looked up)
chain: T4 sequence
As for B5, in the data set “SEC-MALS”, the “stoichiometry N” value is 4.

B6: 35 bp DNA (dsDNA)
DNA 1: GTCACCTGCTCTAGCTAATAGACTGAGCCGAGGTG
DNA 2: CACCTCGGCTCAGTCTATTAGCTAGAGCAGGTGAC
With B6, the binding result with FrzCDΔH1ΔH2 [8], with FrzCDΔH2 (DB-H1-MA) [9], with FrzCDΔH1 [10], with FrzCD [11] and with FrzCDΔMA (DB-H1-H2) [12] was “binds” in each case.

B7: FrzCD^ΔH1ΔH2 (receptor, Myxococcus xanthus, UniProt P43500 1-417, looked up)
chain: T3 sequence
For the molecule B7, in “SEC-MALS”, the “stoichiometry N” value stood at 4.

B8: FrzCD full-length (His6-tagged) (receptor, Myxococcus xanthus, UniProt P43500 1-417, looked up)
chain: T1 sequence
Regarding B8, the “stoichiometry N” value in the data set “SEC-MALS” was determined as 2.

B9: FrzCD^ΔH1 (receptor, Myxococcus xanthus, UniProt P43500 1-417, looked up)
chain: T5 sequence
With B9, the “stoichiometry N” value in “SEC-MALS” was 4.
